system: Escherichia coli TOP10; test: shrunken log2 fold change of peptide-encoding DNA abundance (4.5 h post-induction vs induction); higher = less antimicrobial activity (less host growth inhibition); conditions: time post-induction: 4.5 h; library: site-saturation at positions 5, 18, 19, 20
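Further: peptides expressed intracellularly from a pBAD plasmid library in pooled LB shake-flask culture, induced with 0.3% L-arabinose, DNA abundance read by NGS, three biological replicates, DESeq2 with apeglm shrinkage.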

| Sequence | shrunken log2 fold change |
| --- | --- |
| RRIRIRPPRLPRPRPRPMSGPRP | 0.174 |
| RRIRMRPPRLPRPRPRPPFKPRP | 0.173 |
| RRIRWRPPRLPRPRPRPKNCPRP | -0.122 |
| RRIRNRPPRLPRPRPRPRQKPRP | -0.0544 |
| RRIRFRPPRLPRPRPRPLNMPRP | -0.777 |
| RRIRRRPPRLPRPRPRPFLEPRP | 0.0277 |
| RRIRDRPPRLPRPRPRPMMGPRP | 0.0397 |
| RRIRLRPPRLPRPRPRPHVLPRP | -0.0737 |
| RRIRTRPPRLPRPRPRPIPSPRP | -0.236 |
| RRIRLRPPRLPRPRPRPEGGPRP | 0.0449 |
| RRIRKRPPRLPRPRPRPDPMPRP | 0.86 |
| RRIRGRPPRLPRPRPRPYYIPRP | -0.233 |
| RRIRCRPPRLPRPRPRPEHSPRP | 0.0871 |
| RRIRYRPPRLPRPRPRPDRNPRP | -0.018 |
| RRIRGRPPRLPRPRPRPAKTPRP | 0.121 |
| RRIRIRPPRLPRPRPRPSMCPRP | -1.33 |
| RRIRVRPPRLPRPRPRPTDCPRP | -0.184 |
| RRIRWRPPRLPRPRPRPMGCPRP | 0.117 |
| RRIRTRPPRLPRPRPRPGSFPRP | 0.00381 |
| RRIRWRPPRLPRPRPRPKAYPRP | -0.12 |

| Sequence | shrunken log2 fold change |
| --- | --- |
| RRIRLRPPRLPRPRPRPVEEPRP | 0.21 |
| RRIRQRPPRLPRPRPRPHNTPRP | -0.902 |
| RRIRCRPPRLPRPRPRPGIKPRP | -0.876 |
| RRIRIRPPRLPRPRPRPFTLPRP | 0.0488 |
| RRIRFRPPRLPRPRPRPDGDPRP | 0.0613 |
| RRIRLRPPRLPRPRPRPSMQPRP | -0.205 |
| RRIRERPPRLPRPRPRPTGWPRP | 0.0993 |
| RRIRSRPPRLPRPRPRPCACPRP | -0.0721 |
| RRIRPRPPRLPRPRPRPCLNPRP | -0.35 |
| RRIRNRPPRLPRPRPRPPDRPRP | 0.00517 |
| RRIRVRPPRLPRPRPRPSVYPRP | -0.25 |
| RRIRWRPPRLPRPRPRPSSHPRP | -0.248 |
| RRIRCRPPRLPRPRPRPGQPPRP | 0.126 |
| RRIRMRPPRLPRPRPRPPQVPRP | 0.995 |
| RRIRQRPPRLPRPRPRPDRSPRP | 0.0153 |
| RRIRSRPPRLPRPRPRPEIAPRP | 0.00181 |
| RRIRFRPPRLPRPRPRPIHTPRP | 0.0523 |
| RRIRHRPPRLPRPRPRPKCLPRP | -0.25 |
| RRIRNRPPRLPRPRPRPFREPRP | -0.0373 |
| RRIRKRPPRLPRPRPRPWSNPRP | 0.202 |

| Sequence | shrunken log2 fold change |
| --- | --- |
| RRIRTRPPRLPRPRPRPDAFPRP | -0.014 |
| RRIRMRPPRLPRPRPRPIHFPRP | -0.0141 |
| RRIRCRPPRLPRPRPRPCHNPRP | -0.734 |
| RRIRSRPPRLPRPRPRPKTSPRP | 0.187 |
| RRIRLRPPRLPRPRPRPFVSPRP | -0.281 |
| RRIRHRPPRLPRPRPRPRWWPRP | 0.00789 |
| RRIRMRPPRLPRPRPRPERIPRP | 0.0158 |
| RRIRHRPPRLPRPRPRPGPAPRP | 0.871 |
| RRIRERPPRLPRPRPRPVPFPRP | -0.229 |
| RRIRTRPPRLPRPRPRPPFVPRP | 0.227 |
| RRIRYRPPRLPRPRPRPMCCPRP | -3.16 |
| RRIRYRPPRLPRPRPRPPTNPRP | 0.0849 |
| RRIRDRPPRLPRPRPRPRFAPRP | 0.327 |
| RRIRGRPPRLPRPRPRPMRYPRP | 0.347 |
| RRIRMRPPRLPRPRPRPDGAPRP | 2.17 |
| RRIRYRPPRLPRPRPRPFWFPRP | -0.264 |
| RRIRVRPPRLPRPRPRPFKIPRP | -0.342 |
| RRIRPRPPRLPRPRPRPEIWPRP | 0.374 |
| RRIRWRPPRLPRPRPRPTAPPRP | 0.481 |
| RRIRNRPPRLPRPRPRPCVIPRP | -0.318 |

Reference: the supplement of paper PMC9112550, “Optimization of the antimicrobial peptide Bac7 by deep mutational scanning” (BMC Biology, 2022)
